Here are results for two molecules from patent JP2000166574A.

For this assay, the target named is 抗Fasモノクローナル抗体HFE7A (from mouse-mouse hybridoma HFE7A, FERM BP-5828). In words: peptide (200 μg) preincubated with HFE7A (0.25 μg), then flow cytometry on WR19L12a cells. On the technique in general: In flow cytometry, cells or beads pass a laser one at a time.

B1: P100 (peptide)
peptide: EINCTRTQNT
For B1, the inhibition of binding of HFE7A to WR19L12a cells is 50%.

B2: P110 (peptide)
peptide: KCRCKPNFFC
Take B2: the inhibition of binding of HFE7A to WR19L12a cells was 60%.
